This note sets out measurements from article PMC10170298, “Differential regulation of ATP hydrolysis of RIG-I-like receptors by transactivation response RNA-binding protein”.

This data set addresses T1, TRBP WT (nonphosphorylated) (UniProt Q15633 1-366).
T1 sequence: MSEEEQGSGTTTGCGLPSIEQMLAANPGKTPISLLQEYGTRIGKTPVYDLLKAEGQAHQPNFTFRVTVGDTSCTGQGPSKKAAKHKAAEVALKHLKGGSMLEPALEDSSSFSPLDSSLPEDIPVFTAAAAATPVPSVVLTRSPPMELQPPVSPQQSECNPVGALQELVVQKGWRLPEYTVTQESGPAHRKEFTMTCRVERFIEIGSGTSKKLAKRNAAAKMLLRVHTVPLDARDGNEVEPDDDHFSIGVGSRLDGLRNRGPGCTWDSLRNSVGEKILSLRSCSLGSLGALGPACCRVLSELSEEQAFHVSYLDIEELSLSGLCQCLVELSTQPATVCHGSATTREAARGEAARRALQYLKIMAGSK
Nature of the data set: EMSA; 20 mM HEPES pH 7.5, 150 mM NaCl, 1.5 mM MgCl2, 2 mM DTT, 30 C, 30 min; dsRNA 60 nM, TRBP 0-400 pmol; 5% acrylamide gel. To be noted: protein: recombinant; label: none (SYBR Gold stain); blunt. For orientation: Mobility shift assays separate free from complexed probe on a gel.

B1: TMEV 45-mer dsRNA (dsRNA)
RNA 1: UUACUAUUGACACUAUGGCUUGCAAACAUGGAUACCCAGAUGUGU
RNA 2: ACACAUCUGGGUAUCCAUGUUUGCAAGCCAUAGUGUCAAUAGUAA
Turning to B1, the binding result was “binds”.
